Test results taken from publication doi:10.1101/2023.12.18.572097.

Columns and labels:
[1] = molecular target: E. coli type I Zorya ZorB, wild type (EcZorB) (E. coli); test: cryo-EM structure
[2] = molecular target: E. coli type I Zorya ZorA, wild type (EcZorA) (E. coli); test: cryo-EM structure

stoichiometry N [1]	stoichiometry N [2]	Substance
2		E. coli type I Zorya ZorB, wild type (EcZorB) (natural protein)
	5	E. coli type I Zorya ZorA, wild type (EcZorA) (natural protein)
